Results from article PMC6123443, “Selective Pressure for Biofilm Formation in Bacillus subtilis: Differential Effect of Mutations in the Master Regulator SinR on Bistability” (mBio, 2018).
Changes are numbered by the printed parent chain. Names and notes keep the numbering of the source.

T1: SinR K28T (Bacillus subtilis, UniProt P06533 1-111, K28T)
T1 sequence: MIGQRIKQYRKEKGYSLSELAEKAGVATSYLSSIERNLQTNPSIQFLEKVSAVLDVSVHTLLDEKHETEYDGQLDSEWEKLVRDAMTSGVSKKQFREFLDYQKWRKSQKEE

T2: SinR W104L (Bacillus subtilis, UniProt P06533 1-111, W104L)
T2 sequence: T1 sequence with T28K, W104L

T3: SinR wild type (Bacillus subtilis, UniProt P06533 1-111)
T3 sequence: T1 sequence with T28K

T4: SinR W104R (Bacillus subtilis, UniProt P06533 1-111, W104R)
T4 sequence: T1 sequence with T28K, W104R

T5: SinR S43A (Bacillus subtilis, UniProt P06533 1-111, S43A)
T5 sequence: T1 sequence with T28K, S43A

T6: SinR A85T (Bacillus subtilis, UniProt P06533 1-111, A85T)
T6 sequence: T1 sequence with T28K, A85T

B1: SinR wild type (natural protein, B. subtilis)
chain: T1 sequence with T28K
notes: SinR, master regulator of biofilm formation, Bacillus subtilis; sinR allele amplified from chromosomal DNA with primer pair G8/G10 and cloned between NdeI and EcoRI of pET24a; monomer printed as 12.85 kDa; The printed monomer mass of 12.85 kDa fits the whole protein of 111 residues; No tag is named and purification was by heparin and size exclusion; also called wild-type SinR; source: E. coli …
B2: SinR^W104L (natural protein, B. subtilis)
chain: T1 sequence with T28K, W104L
notes: SinR, Bacillus subtilis, with W104L; allele amplified from chromosomal DNA of the suppressor mutant with primer pair G8/G10, cloned in pET24a (NdeI/EcoRI); Spontaneous suppressor allele isolated in the laboratory from a ymdB mutant; source: E. coli BL21(DE3), purified (heparin Sepharose, size exclusion)
B3: SinR^K28T (natural protein, B. subtilis)
chain: T1 sequence
notes: SinR, Bacillus subtilis, with K28T; allele amplified from chromosomal DNA of the suppressor mutant with primer pair G8/G10, cloned in pET24a (NdeI/EcoRI); Spontaneous suppressor allele isolated in the laboratory from a ymdB mutant; source: E. coli BL21(DE3), purified (heparin Sepharose, size exclusion)
B4: SinR^W104R (natural protein, B. subtilis)
chain: T1 sequence with T28K, W104R
notes: SinR, Bacillus subtilis, with W104R; allele amplified from chromosomal DNA of the suppressor mutant with primer pair G8/G10, cloned in pET24a (NdeI/EcoRI); Spontaneous suppressor allele isolated in the laboratory from a ymdB mutant; source: E. coli BL21(DE3), purified (heparin Sepharose, size exclusion)
B5: SinR^A85T (natural protein, B. subtilis)
chain: T1 sequence with T28K, A85T
notes: SinR, Bacillus subtilis, with A85T; allele amplified from chromosomal DNA of the suppressor mutant with primer pair G8/G10, cloned in pET24a (NdeI/EcoRI); Spontaneous suppressor allele isolated in the laboratory from a ymdB mutant; source: E. coli BL21(DE3), purified (heparin Sepharose, size exclusion)
B6: SinR^S43A (natural protein, B. subtilis)
chain: T1 sequence with T28K, S43A
notes: SinR, Bacillus subtilis, with S43A; allele amplified from chromosomal DNA of the suppressor mutant with primer pair G8/G10, cloned in pET24a (NdeI/EcoRI); Spontaneous suppressor allele isolated in the laboratory from a ymdB mutant; source: E. coli BL21(DE3), purified (heparin Sepharose, size exclusion)
B7: eps operator inverted-repeat SinR box duplex, 21 bp (FAM1721/C-1723) (dsDNA)
DNA 1: ATTGTTCTCTAAAGAGAACTT
DNA 2: AAGTTCTCTTTAGAGAACAAT
B8: SinI (natural protein, B. subtilis, UniProt P23308 1-57, looked up)
chain: MKNAKQEHFELDQEWVELMVEAKEANISPEEIRKYLLLNKKSAHPGPAARSHTVNPF
notes: SinI, antagonist of SinR, Bacillus subtilis; sinI gene amplified by PCR with primer pair G6/G7 and cloned into plasmid pC2; also called SinR antagonist SinI; source: E. coli BL21(DE3), purified (ANX ion exchange, size exclusion)

Experiments:
[1] = target: the molecule itself; assay: SEC-MALS; SinR proteins at 5 mg/ml (equivalent to 400 µM), 150 µl on Superdex 200 Increase 10/300 GL, 50 mM Tris-HCl pH 8.0, 250 mM NaCl, 0.5 ml/min; refractive index at 25°C
[2] = target: T1, SinR K28T; assay: fluorescence polarization; no polarization change up to 20 uM protein; 10 mM Tris-HCl pH 8.0, 100 mM NaCl, 1 mM EDTA; 10 nM labeled duplex, SinR diluted from 20 uM; temperature not stated; conditions: protein: recombinant; tags: none (pET24a, native stop codon in primer G10); chain copies: 4; label: 5'-fluorescein (FAM) on strand 1; blunt
[3] = target: T2, SinR W104L; assay: fluorescence polarization; 10 mM Tris-HCl pH 8.0, 100 mM NaCl, 1 mM EDTA; 10 nM labeled duplex, SinR diluted from 20 uM; temperature not stated; conditions: protein: recombinant; tags: none (pET24a, native stop codon in primer G10); chain copies: 2; label: 5'-fluorescein (FAM) on strand 1; blunt
[4] = target: T3, SinR wild type; assay: as above; conditions: protein: recombinant; tags: none (pET24a, native stop codon in primer G10); chain copies: 4; label: 5'-fluorescein (FAM) on strand 1; blunt
[5] = target: T4, SinR W104R; assay: as above; conditions: protein: recombinant; tags: none (pET24a, native stop codon in primer G10); chain copies: 2; label: 5'-fluorescein (FAM) on strand 1; blunt
[6] = target: T5, SinR S43A; assay: as above; conditions: protein: recombinant; tags: none (pET24a, native stop codon in primer G10); chain copies: 4; label: 5'-fluorescein (FAM) on strand 1; blunt
[7] = target: T6, SinR A85T; assay: as above; conditions: protein: recombinant; tags: none (pET24a, native stop codon in primer G10); chain copies: 4; label: 5'-fluorescein (FAM) on strand 1; blunt
[8] = target: B5; assay: fluorescence polarisation; displacement of fluorescein-labelled 21-bp operator DNA (10 nM) from 5 µM SinR by SinI titrated from 50 µM to 10 nM; 10 mM Tris-HCl pH 8.0, 100 mM NaCl, 1 mM EDTA; qualitative; conditions: both partners purified
[9] = target: B6; assay: as above; conditions: both partners purified
[10] = target: B2; assay: as above; conditions: both partners purified
[11] = target: B4; assay: as above; conditions: both partners purified

Binder: B1
stoichiometry N [1]: 4

Binder: B2
stoichiometry N [1]: 2

Binder: B3
stoichiometry N [1]: 4

Binder: B4
stoichiometry N [1]: 2

Binder: B5
stoichiometry N [1]: 4

Binder: B6
stoichiometry N [1]: 4

Binder: B7
binding result [2]: no binding | Kd [3]: 1900 ± 298 nM | Kd [4]: 179 ± 24 nM | Kd [5]: 2580 ± 545 nM | Kd [6]: 350 ± 81 nM | Kd [7]: 852 ± 39 nM

Binder: B8
binding result [8]: binds | binding result [9]: binds | percent of SinR-bound DNA released by a 10-fold molar excess of SinI [10]: ~60% | percent of SinR-bound DNA released by a 10-fold molar excess of SinI [11]: ~60%
